Biological target: T1, recombinant SARS-CoV-2 S1 protein expressed from insect (Sf9) cells (S1-His, SinoBiological, Cat. No. … (SARS-CoV-2, UniProt P0DTC2 16-685))
T1 construct: also called S1 protein from insect (Sf9) cells
Assay: ELISA, coated S1 from Sf9 cells, HRP-conjugated lectin 10 ug/mL

B1: Maclura pomifera lectin (MPA; Cat. No: H-3901-1) (other)
chain 1: GVTFDDGAYTGIREINFEYNSETAIGGLRVTYDLNGMPFVAEDHKSFITGFKPVKISLEFPSEYIVEVSGYVGKVEGYTVIRSLTFKTNKQTYGPYGVTNGTPFSLPIENGLIVGFKGSIGYWLDYFSIYLSL
chain 2: GRNGKSQSIIVGPWGDRVTN
mean fold increase of OD450: 7.51 fold

— patent US20210085781A1 (KORANEX CAPITAL, published 2021)
